This note sets out measurements from US10093741 (FUSION PHARMACEUTICALS, dated 2018).

In assay [1] the target is T1, insulin-like growth factor-1 receptor (IGF-1R) (human, UniProt P08069 31-1367). As to the kind of experiment: cell-based or functional assay.
Assay [2] concerns the target T1, insulin-like growth factor-1 receptor …. Kind of assay: cell-based or functional assay. This is another data set of the same source.
For assay [3] the target is unchanged. As to the kind of experiment: saturation radioligand binding on IGF-1R expressing A431 cells, 4 °C, specific binding fitted to single-site model. How it is done: The purpose of this assay was to ensure that these new radioconjugates maintained binding characteristics consistent with the native antibody in an IGF-1R expressing A431 cell line. Twenty-four hours prior to the start of the experiment, 1.5×10^5 A431 cells were seeded in 48-well microplates in 500 μl supplemented medium. The radioconjugate was diluted with binding buffer (PBS+0.5% BSA) to a range of concentrations from 0.08 nM to 40 nM; final assay concentration 0.04 to 20 nM. At the start of the assay, the media is aspirated, discarded and 500 μl of serum-free DMEM was added to each well. The plates were incubated at 37° C. for 1 hour. Following incubation, media was aspirated from each well and discarded. The cells were washed and 100 μl of binding buffer (total binding assay) or, for non-specific binding assay, 4 μM cold-antibody was added to designated wells. Plates were incubated at 4° C. for 1 hour with mild shaking. Following the blocking step, 100 μl of radioimmunoconjugate was added to each well. The plates were then incubated at 4° C. for 2 hours. Following incubation, the contents of each well was aspirated and discarded. The cells were washed twice with PBS and were then lysed with 1% Triton-X-100. The lysates were transferred to counting tubes and run with radioconjugate standards on the Wizard 1470 gamma counter to determine the radioactivity content (in counts per minute (CPM)) for each lysate. The remaining lysate from each well (25 μl) was transferred to a 96-well plate, and the protein content of each lysate determined using a standard protein quantification assay. Total, non-specific and specific ligand binding determinations, mass of bound conjugate in each lysate were calculated by converting lysate CPM to fmol bound using the specific activity of the conjugate standards and then normalizing the fmol bound to the protein content of each lysate (in milligrams). Specific binding was determined by subtracting the non-specific binding from total binding. […]

Assay [4] has the same target. As to the kind of experiment: saturation radioligand binding on A431 epidermoid carcinoma cells. The protocol:
The plates were incubated at 37° C. for 1 h. Following incubation, media was aspirated from each well and discarded. The cells were washed and 100 µl of binding buffer (total binding) or 4 µM cold-antibody (non-specific binding) added to designated wells. Plates were incubated at 4° C. for 1 h with mild shaking. Following the blocking step, 100 µl of labeled conjugate was added to each well. The plates were then incubated at 4° C. for 2 h. Following incubation, the contents of each well was aspirated and discarded. The cells were washed twice with PBS and were then lysed with 1% Triton-X-100. The lysates were transferred to counting tubes and run with labeled conjugate standards on the Wizard 1470 gamma counter to determine the radioactivity content (in counts per minute (CPM)) for each lysate. The remaining lysate from each well (25 µl) was transferred to a 96-well plate, and the protein content of each lysate determined using a standard protein quantification assay. Total, non-specific and specific ligand binding determinations, mass of bound conjugate in each lysate were calculated by converting lysate CPM to fmol bound using the specific activity of the conjugate standards and then normalizing the fmol bound to the protein content of each lysate (in milligrams). Specific binding was determined by subtracting the non-specific binding from total binding. […]

Assay [5] has the same target. Kind of assay: saturation radioligand binding on A431 cells (epidermoid carcinoma). The protocol: (§1) Twenty-four hours prior to the start of the experiment, 1.5 ×10^5 cells were seeded in 48-well microplates in 500 µl supplemented medium. The radiolabeled conjugate was diluted with binding buffer (PBS+0.5% BSA) to a range of concentrations from 0.08 nM to 40 nM; final assay concentration 0.04 to 20 nM. At the start of the assay, the media is aspirated, discarded and 500 µl of serum-free DMEM was added to each well. The plates were incubated at 37° C. for 1 h. Following incubation, media was aspirated from each well and discarded. The cells were washed and 100 µl of binding buffer (total binding) or 4 µM cold-antibody (non-specific binding) added to designated wells. […] The lysates were transferred to counting tubes and run with labeled conjugate standards on the Wizard 1470 gamma counter to determine the radioactivity content (in counts per minute (CPM)) for each lysate. The remaining lysate from each well (25 µl) was transferred to a 96-well plate, and the protein content of each lysate determined using a standard protein quantification assay. Total, non-specific and specific ligand binding determinations, mass of bound conjugate in each lysate were calculated by converting lysate CPM to fmol bound using the specific activity of the conjugate standards and then normalizing the fmol bound to the protein content of each lysate (in milligrams). […]

Assay [6] has the same target. Kind of assay: saturation radioligand binding on A549 cells (NSCLC). The protocol:
as §1

For assay [7] the target is unchanged. As to the kind of experiment: saturation radioligand binding on LnCaP cells (prostate). How it is done: as §1
For assay [8] the target is unchanged. Kind of assay: saturation radioligand binding on BxPC3 cells (pancreatic). The protocol:
as §1

For assay [9] the target is unchanged. Kind of assay: saturation radioligand binding on Du-145 cells (prostate). How it is done: as §1
Assay [10] has the same target. Kind of assay: saturation radioligand binding on MiaPaca-II cells (pancreatic). The protocol: as §1
For assay [11] the target is unchanged. Kind of assay: saturation radioligand binding on PC-3 cells (prostate). How it is done: as §1
For assay [12] the target is unchanged. As to the kind of experiment: saturation radioligand binding on H226 cells (NSCLC). The protocol: as §1

Usually Kd stands for the constant that tells how readily two partners part at equilibrium. High values mean weaker binding, low ones tighter binding.

T1 sequence (P08069 31-1367): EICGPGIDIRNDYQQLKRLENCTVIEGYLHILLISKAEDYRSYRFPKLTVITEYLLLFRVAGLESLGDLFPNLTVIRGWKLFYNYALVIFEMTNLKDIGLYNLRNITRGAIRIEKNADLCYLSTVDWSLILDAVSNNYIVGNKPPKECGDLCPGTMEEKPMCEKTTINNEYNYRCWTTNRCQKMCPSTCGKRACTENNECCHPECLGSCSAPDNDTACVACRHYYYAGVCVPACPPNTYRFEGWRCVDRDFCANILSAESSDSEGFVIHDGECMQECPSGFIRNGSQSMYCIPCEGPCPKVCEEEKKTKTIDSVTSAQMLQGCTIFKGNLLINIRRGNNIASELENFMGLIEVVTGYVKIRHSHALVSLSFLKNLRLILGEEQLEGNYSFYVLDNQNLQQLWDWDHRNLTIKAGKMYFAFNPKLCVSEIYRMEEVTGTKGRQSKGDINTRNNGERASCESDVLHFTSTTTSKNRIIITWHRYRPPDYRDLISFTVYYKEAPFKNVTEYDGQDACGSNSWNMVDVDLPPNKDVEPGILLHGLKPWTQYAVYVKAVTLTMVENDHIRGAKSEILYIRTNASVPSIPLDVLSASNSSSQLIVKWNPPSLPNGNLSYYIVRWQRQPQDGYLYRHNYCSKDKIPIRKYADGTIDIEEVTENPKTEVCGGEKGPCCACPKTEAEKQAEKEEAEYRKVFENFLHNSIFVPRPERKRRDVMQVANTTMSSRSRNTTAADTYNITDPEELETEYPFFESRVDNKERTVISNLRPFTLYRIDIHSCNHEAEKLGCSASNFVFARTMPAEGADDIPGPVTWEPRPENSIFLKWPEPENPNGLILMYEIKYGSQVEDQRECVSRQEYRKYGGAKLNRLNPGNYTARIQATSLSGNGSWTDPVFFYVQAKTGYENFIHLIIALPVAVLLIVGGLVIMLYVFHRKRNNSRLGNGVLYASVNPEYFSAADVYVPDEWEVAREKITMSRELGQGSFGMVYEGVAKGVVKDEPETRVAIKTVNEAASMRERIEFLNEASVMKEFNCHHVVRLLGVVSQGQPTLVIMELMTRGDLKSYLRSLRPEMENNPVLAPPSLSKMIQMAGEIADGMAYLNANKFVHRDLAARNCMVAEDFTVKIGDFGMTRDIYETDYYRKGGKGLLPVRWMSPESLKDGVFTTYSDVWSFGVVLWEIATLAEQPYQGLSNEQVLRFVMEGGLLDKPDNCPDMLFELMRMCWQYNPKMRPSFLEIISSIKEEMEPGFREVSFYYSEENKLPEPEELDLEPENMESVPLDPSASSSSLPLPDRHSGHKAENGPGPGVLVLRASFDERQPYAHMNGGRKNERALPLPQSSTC

B1: HuMIGF-1R (AVE1642) (antibody, human IgG1, kappa)
light: DVVMTQTPLSLPVSLGDPASISCRSSQSIVHSNVNTYLEWYLQKPGQSPRLLIYKVSNRFSGVPDRFSGSGAGTDFTLRISRVEAEDLGIYYCFQGSHVPPTFGGGTKLEIKRTVAAPSVFIFPPSDEQLKSGTASVVCLLNNFYPREAKVQWKVDNALQSGNSQESVTEQDSKDSTYSLSSTLTLSKADYEKHKVYACEVTHQGLSSPVTKSFNRGEC
heavy: not shown
Regarding B1, the “Compound Potency (IC50; µg/mL): inhibition of IGF-1 ligand stimulated autophosphorylation of IGF-1R in A431 cells, phospho-IGF-1R ELISA” value in assay [1] was found to be 0.04 µg/mL. Besides, the “Conjugate Potency (IC50; µg/mL): inhibition of IGF-1 ligand stimulated autophosphorylation of IGF-1R in A431 cells, phospho-IGF-1R ELISA; degree of substitution 0 DOTA/mAb (native antibody)” value in assay [2] came out at 0.04 µg/mL.

B2: [^177Lu]-Compound A-HuMIGF-1R (antibody)
light: B1 light
heavy: not shown
modifications: Compound A (DOTA-GA anhydride) chelate conjugated to the antibody, sites not stated; chelate loaded with 177Lu
notes: also called Commercial Standard
In assay [3], B2 displayed a Kd of 2.9 nM.

B3: [^177Lu]-Compound B-HuMIGF-1R (antibody)
light: B1 light
heavy: not shown
modifications: Compound B (DOTA-GA with undecanoyl linker, TFP ester) conjugated to the antibody, sites not stated; chelate loaded with 177Lu
B3 yielded a Kd in assay [3] of 2 nM.

B4: [^111In]-Compound C-HuMIGF-1R (antibody)
light: B1 light
heavy: not shown
modifications: Compound C (DOTA-GA with PEG3 linker, TFP ester) conjugated to the antibody, sites not stated; chelate loaded with 111In
In the case of B4, the Kd in assay [4] was 6.9 nM. Moreover, the “Compound Potency (IC50; µg/mL): inhibition of IGF-1 ligand stimulated autophosphorylation of IGF-1R in A431 cells, phospho-IGF-1R ELISA” value in assay [1] came out at 0.19 µg/mL.

B5: [^177Lu]-Compound C-HuMIGF-1R (antibody)
light: B1 light
heavy: not shown
modifications: Compound C (DOTA-GA with PEG3 linker, TFP ester) conjugated to the antibody, sites not stated; chelate loaded with 177Lu
Regarding B5, the Kd in [3] came out at 2.2 nM; in assay [5], 2.2 nM; in [6] it was 0.7 nM; in assay [7] it was 1.6 nM; in assay [8] it was 2.9 nM; in assay [9], 3 nM. Besides, the Kd was determined as 1.9 nM in assay [10], 1.7 nM in assay [11] and 2.3 nM in [12]. In assay [1], the “Compound Potency (IC50; µg/mL): inhibition of IGF-1 ligand stimulated autophosphorylation of IGF-1R in A431 cells, phospho-IGF-1R ELISA” value was 0.04 µg/mL.
